# Measured values reported in the supplement of paper PMC7877785.
# ± gives the uncertainty stated by the source.
# Test: self-splicing fitness, log relative to wild type (ln ratio); higher = more splicing; Tetrahymena group I intron in knt gene, E. coli kanamycin selection, DiMSum; sequences stand for … in CUCUCU…GGAGGGAAAAGUUAUCAGGCAUGCACCUGGUAGCUAGUCUUUAAACCAAUAGAUUGCAUCGGUUUAAAAGGCAAGACCGUCAAAUUGCGGGAAAGGGGUCAACAGCCGUUCAGUACCAAGUCUCAGGGGAAACUUUGAGAUGGCCUUGCAAAGGGUAUGGUAAUAAGCUGACGGACAUGGUCCUAACCACGCAGCCAAGUCCUAAGUCAACAGAUCUUCUGUUGAUAUGGAUGCAGUUCACAGACUAAAUGUCGGUCGGGGAAGAUGUAUUCUUCUCAUAAGAUAUAGUCGGACCUCUCCUUAAUGGGAGCUAGCGGAUGAAGUGAUGCAACACUGGAGCCGCUGGGAACUAAUUUGUAUGCGAAAGUAUAUUGAUUAGUUUUGGAGUACUCGUGGUCG
# Outline: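 The eight P1ex-region nucleotides of an intron in the knt kanamycin-resistance gene on pET-22b(+) were all randomised and the library put into E. coli BL21(DE3). Six replicate transformations were grown overnight at 37°C or 30°C on LB agar with or without 25 μg/mL kanamycin, together with 100 μg/mL carbenicillin, 50 μM IPTG and 0.2% rhamnose. Colonies were pooled and amplicon-sequenced on an Illumina HiSeq 2500. Fitness from DiMSum is the error-weighted combination of wild-type-normalised replicate fold changes, kanamycin over none.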
Sequence,self-splicing fitness (ln) (30 °C),self-splicing fitness (ln) (37 °C)
CGAUAGCAAUAUUACGUCCG,-1.4 ± 0.1,-0.5 ± 0.12
AUCGAGCAAUAUUACGAUAU,-2.14 ± 0.17,-0.583 ± 0.14
UCCUAGCAAUAUUACGAAGU,-1.47 ± 0.1,-0.726 ± 0.14
GCUCAGCAAUAUUACGUAUG,-2.44 ± 0.076,-1.62 ± 0.091
UAGCAGCAAUAUUACGUGCG,-0.801 ± 0.076,0.26 ± 0.081
CCAUAGCAAUAUUACGGGCG,-1.02 ± 0.097,-0.644 ± 0.11
CGAGAGCAAUAUUACGGUCA,-3.17 ± 0.27,-2.29 ± 0.3
GAAAAGCAAUAUUACGGGCU,-1.37 ± 0.15,-1.72 ± 0.21
UCAAAGCAAUAUUACGCGUA,-0.554 ± 0.1,-0.355 ± 0.099
UGUAAGCAAUAUUACGGCGA,-0.0897 ± 0.085,-0.0127 ± 0.11
GGAAAGCAAUAUUACGCGUA,-1.45 ± 0.14,-1.52 ± 0.13
UGACAGCAAUAUUACGGUUA,-0.746 ± 0.073,-0.364 ± 0.065
UGGGAGCAAUAUUACGUCCU,,-1.3 ± 0.26
UCAAAGCAAUAUUACGCCGC,-3.89 ± 0.39,-1.67 ± 0.42
UGGCAGCAAUAUUACGACGA,-0.192 ± 0.12,-0.159 ± 0.14
UAGUAGCAAUAUUACGUACA,-1.05 ± 0.064,-0.269 ± 0.081
CUAUAGCAAUAUUACGUCAU,-2.83 ± 0.33,-3.05 ± 0.24
CCGUAGCAAUAUUACGUCAU,-3.33 ± 0.24,-2.32 ± 0.28
CUCGAGCAAUAUUACGGACC,-3.81 ± 0.37,-2.52 ± 0.41
UGGCAGCAAUAUUACGGUUC,-2.14 ± 0.2,-0.624 ± 0.19
AUCCAGCAAUAUUACGUAAU,-0.922 ± 0.072,-0.492 ± 0.079
GGAAAGCAAUAUUACGAGAA,,-1.29 ± 0.27
UCCCAGCAAUAUUACGUCGG,-2.16 ± 0.13,-2.59 ± 0.23
GGGGAGCAAUAUUACGUCAA,-2.48 ± 0.3,-3.16 ± 0.35
CCGCAGCAAUAUUACGCAGA,-2.89 ± 0.2,-2.25 ± 0.17

Sequence,self-splicing fitness (ln) (30 °C),self-splicing fitness (ln) (37 °C)
CCUCAGCAAUAUUACGGGUU,-4.07 ± 0.21,-2.02 ± 0.15
GUGGAGCAAUAUUACGUGUU,-4.54 ± 0.47,
CUCAAGCAAUAUUACGUCAU,-2.99 ± 0.14,-2.55 ± 0.14
CUCGAGCAAUAUUACGACCU,-3.42 ± 0.25,-3.53 ± 0.37
UGGAAGCAAUAUUACGUACU,-0.516 ± 0.094,-0.023 ± 0.098
AAAGAGCAAUAUUACGGGCU,-3.06 ± 0.17,-3.58 ± 0.34
CUGCAGCAAUAUUACGAUGG,-1.7 ± 0.08,-1.18 ± 0.1
UGAUAGCAAUAUUACGGGAC,-4.2 ± 0.31,-2.54 ± 0.25
CCAUAGCAAUAUUACGAGCA,-3.11 ± 0.2,-2.11 ± 0.23
AUGGAGCAAUAUUACGAGCA,-2.33 ± 0.46,-1.17 ± 0.49
UGCAAGCAAUAUUACGGACG,-0.345 ± 0.068,-0.0664 ± 0.087
GACCAGCAAUAUUACGCUCC,-2.32 ± 0.22,-1.83 ± 0.21
GUGCAGCAAUAUUACGUUCG,-1.52 ± 0.09,-0.675 ± 0.14
UCGCAGCAAUAUUACGAGUA,-2.36 ± 0.14,-0.752 ± 0.12
AGGCAGCAAUAUUACGUGCC,-2.9 ± 0.26,-2.73 ± 0.31
AUGGAGCAAUAUUACGGAAC,,-1.21 ± 0.42
CCCAAGCAAUAUUACGUCCC,-3.35 ± 0.43,
AGCGAGCAAUAUUACGAUGC,-3.11 ± 0.45,
CGUGAGCAAUAUUACGAGGU,-0.426 ± 0.29,-1.35 ± 0.31
AUGGAGCAAUAUUACGUUUA,-2.59 ± 0.28,-1.83 ± 0.27
UUACAGCAAUAUUACGUGUA,-2.48 ± 0.084,-1.48 ± 0.081
AAAAAGCAAUAUUACGGUGU,-2.13 ± 0.094,-1.39 ± 0.11
UUGUAGCAAUAUUACGAAGG,,-1.9 ± 0.47
GAGUAGCAAUAUUACGGCCG,-1.24 ± 0.15,-0.0588 ± 0.23
CAACAGCAAUAUUACGCCCG,-0.408 ± 0.098,0.465 ± 0.12

Sequence,self-splicing fitness (ln) (30 °C),self-splicing fitness (ln) (37 °C)
UCGGAGCAAUAUUACGGUUA,-2.38 ± 0.47,-2.3 ± 0.28
AUCCAGCAAUAUUACGUCCU,-1.47 ± 0.11,-0.253 ± 0.14
UGGCAGCAAUAUUACGAGUG,-1.19 ± 0.11,0.196 ± 0.12
GGCAAGCAAUAUUACGCACA,-0.684 ± 0.09,0.564 ± 0.11
CGAUAGCAAUAUUACGCAUA,-3.25 ± 0.28,-1.8 ± 0.24
CUGUAGCAAUAUUACGGAUU,-3.48 ± 0.28,-2.7 ± 0.33
UGUGAGCAAUAUUACGCAUA,-1.6 ± 0.23,-2.46 ± 0.33
GGCGAGCAAUAUUACGUGGG,-3.57 ± 0.44,-1.44 ± 0.27
CGAAAGCAAUAUUACGGUAA,-2.13 ± 0.16,-1.56 ± 0.15
AUUAAGCAAUAUUACGGGCU,-1.31 ± 0.13,-1.47 ± 0.17
CCCAAGCAAUAUUACGGGAC,-4.01 ± 0.18,-2.67 ± 0.15
AGGCAGCAAUAUUACGCUAA,-1.05 ± 0.097,-0.682 ± 0.11
UACAAGCAAUAUUACGUAUC,-3.94 ± 0.24,-2.69 ± 0.21
AACAAGCAAUAUUACGUCAG,-3.64 ± 0.16,-2.39 ± 0.14
CGGCAGCAAUAUUACGUGAC,-3.9 ± 0.13,-1.22 ± 0.1
CACAAGCAAUAUUACGGGAC,-3.48 ± 0.19,-2.86 ± 0.2
UCCCAGCAAUAUUACGAGAU,-3.57 ± 0.23,-2.66 ± 0.17
CGUGAGCAAUAUUACGAGAG,-2.29 ± 0.25,-2.64 ± 0.36
AAAGAGCAAUAUUACGGCGG,-3.05 ± 0.19,-2.21 ± 0.24
GUCCAGCAAUAUUACGCCUU,-0.571 ± 0.1,-0.309 ± 0.11
GCUAAGCAAUAUUACGCAAC,-2.35 ± 0.42,-0.352 ± 0.47
AGCCAGCAAUAUUACGAUCA,,-2.69 ± 0.32
CAACAGCAAUAUUACGCAGU,-2.78 ± 0.19,-3.62 ± 0.3
AUGAAGCAAUAUUACGUGCC,-0.735 ± 0.12,-0.196 ± 0.11
GGGCAGCAAUAUUACGAAUC,-0.438 ± 0.15,-0.491 ± 0.21

Sequence,self-splicing fitness (ln) (30 °C),self-splicing fitness (ln) (37 °C)
GGCCAGCAAUAUUACGGUCU,-2.82 ± 0.15,-2.78 ± 0.3
GUAAAGCAAUAUUACGAUGA,-0.0816 ± 0.064,-0.318 ± 0.068
GUUGAGCAAUAUUACGCUCC,-1.81 ± 0.48,
UAAAAGCAAUAUUACGCCCC,-3.1 ± 0.49,0.13 ± 0.35
GCCUAGCAAUAUUACGUUGC,-1.05 ± 0.076,-0.0792 ± 0.081
CAUAAGCAAUAUUACGGCGA,-1.96 ± 0.18,-0.178 ± 0.15
GCCCAGCAAUAUUACGGCUA,-1.1 ± 0.095,-0.549 ± 0.1
CGGUAGCAAUAUUACGAUCU,-0.105 ± 0.081,0.492 ± 0.12
UCCCAGCAAUAUUACGAGAC,-3.6 ± 0.28,-0.749 ± 0.16
AUUGAGCAAUAUUACGAUUG,-3.62 ± 0.3,-3.11 ± 0.26
CUUAAGCAAUAUUACGACUA,-1.35 ± 0.35,
AGUUAGCAAUAUUACGAAGC,-3.59 ± 0.48,-1.98 ± 0.48
AGGUAGCAAUAUUACGAGCG,-0.808 ± 0.014,-0.435 ± 0.033
GGUCAGCAAUAUUACGCCAU,-3.36 ± 0.3,-0.853 ± 0.17
UGCGAGCAAUAUUACGUUAU,,-3.11 ± 0.4
CCGUAGCAAUAUUACGGAAA,-3.22 ± 0.42,-2.52 ± 0.46
AGCGAGCAAUAUUACGGACU,-1.24 ± 0.15,0.232 ± 0.16
GCUCAGCAAUAUUACGUGUU,-0.538 ± 0.055,0.555 ± 0.064
GCCCAGCAAUAUUACGUUAG,-3.81 ± 0.14,-2.26 ± 0.16
CAUCAGCAAUAUUACGAAGC,-3.23 ± 0.47,-2.2 ± 0.41
CUGGAGCAAUAUUACGUCCU,-3.17 ± 0.16,-2.56 ± 0.22
CCCCAGCAAUAUUACGGAAU,-3.31 ± 0.13,-2.4 ± 0.2
UCCGAGCAAUAUUACGCAAU,,-2.91 ± 0.34
CUGCAGCAAUAUUACGGUAG,-3.65 ± 0.1,-2.45 ± 0.11
